According to PMC5238724:

Target: Drosophila protamine B (Prot B), untagged recombinant (Drosophila)
Test: non-reducing SDS-PAGE of disulfide-linked oligomers

## Drosophila protamine B (Prot B), untagged recombinant (natural protein)
  stoichiometry N: 2
